Laboratory results published in article doi:10.1101/805184 (bioRxiv, 2019).
Each block holds one binder with its values, some of them ahead of it.

Biological target: Snf2 (S. cerevisiae, UniProt P22082 1-1703)
Assay: cryo-EM structure

Snf2, sequence (P22082 whole entry): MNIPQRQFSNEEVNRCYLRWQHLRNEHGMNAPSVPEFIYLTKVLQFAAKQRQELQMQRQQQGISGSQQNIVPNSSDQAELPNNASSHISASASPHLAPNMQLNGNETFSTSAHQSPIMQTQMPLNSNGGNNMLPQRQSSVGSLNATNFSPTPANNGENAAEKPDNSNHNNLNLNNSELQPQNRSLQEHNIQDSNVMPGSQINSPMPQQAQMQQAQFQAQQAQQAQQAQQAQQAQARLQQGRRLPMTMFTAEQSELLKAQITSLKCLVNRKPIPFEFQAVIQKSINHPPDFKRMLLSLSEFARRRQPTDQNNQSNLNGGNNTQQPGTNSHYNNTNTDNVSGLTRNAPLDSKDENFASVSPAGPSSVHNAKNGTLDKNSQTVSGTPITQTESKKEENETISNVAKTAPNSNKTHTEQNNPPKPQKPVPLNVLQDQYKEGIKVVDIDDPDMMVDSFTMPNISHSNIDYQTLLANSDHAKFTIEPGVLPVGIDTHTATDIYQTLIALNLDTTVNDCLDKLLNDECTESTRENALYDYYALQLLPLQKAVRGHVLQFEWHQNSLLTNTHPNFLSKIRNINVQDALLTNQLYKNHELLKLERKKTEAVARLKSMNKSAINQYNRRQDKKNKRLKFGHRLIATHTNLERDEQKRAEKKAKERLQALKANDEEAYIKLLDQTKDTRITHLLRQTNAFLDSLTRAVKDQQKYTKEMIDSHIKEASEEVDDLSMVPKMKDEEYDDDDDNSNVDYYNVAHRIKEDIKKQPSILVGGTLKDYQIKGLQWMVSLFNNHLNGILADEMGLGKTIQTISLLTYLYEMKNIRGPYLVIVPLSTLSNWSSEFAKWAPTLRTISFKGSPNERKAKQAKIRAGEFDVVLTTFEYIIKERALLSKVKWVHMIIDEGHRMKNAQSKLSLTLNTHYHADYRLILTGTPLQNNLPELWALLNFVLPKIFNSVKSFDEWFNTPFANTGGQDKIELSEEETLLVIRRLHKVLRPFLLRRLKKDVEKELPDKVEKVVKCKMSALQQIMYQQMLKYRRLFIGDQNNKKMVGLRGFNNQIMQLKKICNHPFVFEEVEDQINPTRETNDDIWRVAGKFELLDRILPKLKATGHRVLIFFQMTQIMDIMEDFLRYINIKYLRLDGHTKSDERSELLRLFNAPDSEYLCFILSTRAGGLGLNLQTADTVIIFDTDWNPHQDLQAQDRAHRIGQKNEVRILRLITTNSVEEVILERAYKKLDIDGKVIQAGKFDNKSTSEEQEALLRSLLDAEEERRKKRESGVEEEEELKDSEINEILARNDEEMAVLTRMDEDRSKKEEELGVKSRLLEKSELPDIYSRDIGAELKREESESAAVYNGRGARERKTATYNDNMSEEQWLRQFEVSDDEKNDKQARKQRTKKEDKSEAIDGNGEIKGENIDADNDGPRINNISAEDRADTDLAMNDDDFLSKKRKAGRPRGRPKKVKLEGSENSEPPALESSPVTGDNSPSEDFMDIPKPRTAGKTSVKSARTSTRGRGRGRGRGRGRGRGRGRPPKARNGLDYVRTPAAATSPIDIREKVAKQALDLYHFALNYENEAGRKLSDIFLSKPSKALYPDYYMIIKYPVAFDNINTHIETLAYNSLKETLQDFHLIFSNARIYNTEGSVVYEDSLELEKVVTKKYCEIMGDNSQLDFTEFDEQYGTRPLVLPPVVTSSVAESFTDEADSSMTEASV

binding result: binds
B1: Rtt102 (natural protein)
chain: MDPQTLITKANKVSYYGNPTSKESWRYDWYQPSKVSSNVQQPQQQLGDMENNLEKYPFRYKTWLRNQEDEKNLQRESCEDILDLKEFDRRILKKSLMTSHTKGDTSKATGAPSANQGDEALSVDDIRGAVGNSEAIPGLSAGVNNDNTKESKDVKMN

binding result: binds
B2: Arp9 (natural protein)
chain: MAPFRQDSILIIYPRSQTTLVQFGLNEETFTVPELEIPTQIYRTTRQDGSYTYHSTNKDNKAELIKPIQNGEIIDISAFTQFLRLIFVSILSDRANKNQDAFEAELSNIPLLLITHHSWSQSDLEIITQYVFESLEINNLIQLPASLAATYSMISLQNCCIIDVGTHHTDIIPIVDYAQLDHLVSSIPMGGQSINDSLKKLLPQWDDDQIESLKKSPIFEVLSDDAKKLSSFDFGNENEDEDEGTLNVAEIITSGRDTREVLEERERGQKVKNVKNSDLEFNTFWDEKGNEIKVGKQRFQGCNNLIKNISNRVGLTLDNIDDINKAKAVWENIIIVGGTTSISGFKEALLGQLLKDHLIIEPEEEKSKREEEAKSVLPAATKKKSKFMTNSTAFVPTIEYVQCPTVIKLAKYPDYFPEWKKSGYSEIIFLGAQIVSKQIFTHPKDTFYITREKYNMKGPAALWDVQF

binding result: binds
B3: Swi1 (natural protein)
chain: MDFFNLNNNNNNNNTTTTTTTTNNNNTNNNNTNNNNNPANNTNNNNSTGHSSNTNNNTNNNNTNTGASGVDDFQNFFDPKPFDQNLDSNNNNSNSNNNDNNNSNTVASSTNFTSPTAVVNNAAPANVTGGKAANFIQNQSPQFNSPYDSNNSNTNLNSLSPQAILAKNSIIDSSNLPLQAQQQLYGGNNNNNSTGIANDNVITPHFITNVQSISQNSSSSTPNTNSNSTPNANQQFLPFNNSASNNGNLTSNQLISNYAASNSMDRSSSASNEFVPNTSDNNNNSNNHNMRNNSNNKTSNNNNVTAVPAATPANTNNSTSNANTVFSERAAMFAALQQKQQQRFQALQQQQQQQQNQQQQNQQPQQQQQQQQNPKFLQSQRQQQQRSILQSLNPALQEKISTELNNKQYELFMKSLIENCKKRNMPLQSIPEIGNRKINLFYLYMLVQKFGGADQVTRTQQWSMVAQRLQISDYQQLESIYFRILLPYERHMISQEGIKETQAKRIFLQQFLQELLKKVQQQQQAAALANANNNINSASSAPTPAAPGASVPATAAPGTEAGIVPVSANTPKSLNSNININVNNNNIGQQQVKKPRKQRVKKKTKKELELERKEREDFQKRQQKLLEDQQRQQKLLLETKLRQQYEIELKKLPKVYKRSIVRNYKPLINRLKHYNGYDINYISKIGEKIDSNKPIFLFAPELGAINLHALSMSLQSKNLGEINTALNTLLVTSADSNLKISLVKYPELLDSLAILGMNLLSNLSQNVVPYHRNTSDYYYEDAGSNQYYVTQHDKMVDKIFEKVNNNATLTPNDSNDEKVTILVDSLTGNQLPTPTPTEMEPDLDTECFISMQSTSPAVKQWDLLPEPIRFLPNQFPLKIHRTPYLTSLKKIKDEIDDPFTKINTRGAEDPKVLINDQLSTISMILRNISFSDNNSRIMSRNFYLKRFISDLLWLVLIHPENFTCNRKILNFKKDLVIVLSNISHLLEIASSIDCLLILILVISFGQPKLNPMASSSSFGSESLTFNEFQLQWGKYQTFGVDILAKLFSLEKPNLNYFKSILLNKNTGNNLYDRNSNNNHKDKKLLRRLLNLYNDNNKNNNNRHNLLNDVVSFLFSAIPLQQVLSQSADPSLLIDQFSPVISQSLTSILVIVQKILPLSNEVFEISENNSDSNSNNNGNKDSSFNFNKNLPFVWLSSEENIGSGLLKLSEIILNINNSTSKNTLLQQQNYSKVLLPSINISCVQLIKCLVEKSICFENCLNNDPEILKKIASIPNLFPTDLEIFQLFTNPSVDIQIINQYQLLYNLKNDILTNLE

binding result: binds
B4: Arp7 (natural protein)
chain: MTLNRKCVVIHNGSHRTVAGFSNVELPQCIIPSSYIKRTDEGGEAEFIFGTYNMIDAAAEKRNGDEVYTLVDSQGLPYNWDALEMQWRYLYDTQLKVSPEELPLVITMPATNGKPDMAILERYYELAFDKLNVPVFQIVIEPLAIALSMGKSSAFVIDIGASGCNVTPIIDGIVVKNAVVRSKFGGDFLDFQVHERLAPLIKEENDMENMADEQKRSTDVWYEASTWIQQFKSTMLQVSEKDLFELERYYKEQADIYAKQQEQLKQMDQQLQYTALTGSPNNPLVQKKNFLFKPLNKTLTLDLKECYQFAEYLFKPQLISDKFSPEDGLGPLMAKSVKKAGASINSMKANTSTNPNGLGTSHINTNVGDNNSTASSSNISPEQVYSLLLTNVIITGSTSLIEGMEQRIIKELSIRFPQYKLTTFANQVMMDRKIQGWLGALTMANLPSWSLGKWYSKEDYETLKRDRKQSQATNATN
